Assay results taken from the Human Domainome abundance scans (Beltran et al. 2025).

B1: RUN and FYVE domain-containing protein 1, residues 639 to 698; numbered along this chain, Q96T51 (parent)
chain: WLKDDEATHCRQCEKEFSISRRKHHCRNCGHIFCNTCSSNELALPSYPKPVRVCDSCHTL
B2: Integrator complex subunit 12, residues 155 to 213; numbered along this chain, Q96CB8 (parent)
chain: AMEMGLACVVCRQMMVASGNQLVECQECHNLYHRDCHKPQVTDKEANDPRLVWYCARCT

Variants of: B1
Test: abundance fitness (aPCA) (normalised: wild type 0, dead -1); higher = more abundant; growth selection in yeast, the domain comes from the species named
Details: Homo sapiens

Abundance fitness, by site and new letter:
C10: G -0.849; N -0.837; Q -0.678; R -0.843; H -0.665; Y -0.72; I -0.636; M -1.02; F -0.776; K -0.766; T -0.711; A -0.765; L -0.74; W -0.519; E -0.687; V -0.815
C13: R -0.802; S -0.899; I -1.01; G -0.684; F -0.707; D -0.874; V -0.951; M -0.943; W -0.82; N -0.712; E -0.738; T -0.83; H -0.975; K -1.07; P -0.984; L -0.913; Q -0.806
E6: L -0.425; V -0.254; W -0.388; K 0.126; I 0.029; S -0.165; C 0.009; D -0.078; F -0.295; M -0.316; N -0.121; R -0.336; P -0.236; G 0.001; T -0.014; A -0.085; Y -0.191; Q -0.203; H -0.185
T8: D -0.087; E -0.085; P -0.187; R -0.009; G -0.062; H 0.025; V -0.269; Q 0.008; Y -0.349; K -0.026; I 0.047; C -0.325; M 0.022; L -0.009; A -0.204; S -0.016
L2: V -0.044; W -0.329; I -0.104; H -0.211; K 0.102; T -0.02; C -0.327; A 0.01; R -0.393; Y 0.058; M -0.074; D -0.006; G -0.074; Q -0.023; P -1.13; F -0.061
D5: M 0.058; I -0.341; W -0.531; E -0.134; T -0.178; S -0.209; R -0.57; H -0.426; N 0.004; A -0.21; Q -0.708; K -0.069; L -0.547; Y -0.258; V -0.313; C -0.17; G -0.388; P -0.537
K3: L -0.607; R -0.618; M -0.431; F -1.14; A -0.602; H -0.42; Q -0.664; S -0.55; I -0.393; V -0.687; E -0.475; C -1.03; G -0.515; P -0.906; N -0.133; Y -0.529; D -0.539
D4: I -0.241; H -0.192; A -0.466; T -0.27; G -0.228; C -0.971; S -0.158; Y -0.18; R -0.22; N -0.018; F -0.234; V -0.351; K -0.068; P -0.494; L -0.298; E -0.156
K15: M -0.373; P -0.999; H -0.074; L -0.188; G -0.088; A -0.527; I -0.143; N -0.058; C -0.196; R -0.053; Q -0.082; D -0.233; E -0.009
A7: H -0.176; L -0.234; I -0.008; F -0.028; C -0.082; M -0.302; Y -0.092; R -0.031; V -0.108; W -0.154; N -0.204; T 0.014; D -0.039; K -0.384; E 0.017; G -0.09; Q 0.04; S 0.092; P -0.114
W1: T -0.286; C 0.094; L -0.05; F -0.106; A -0.014; K 0.249; Y 0.311; N 0.251; G 0.131; V -0.005; E -0.138; M 0.253; D 0.445; R -0.182; S 0.121
R11: F -0.023; D 0.057; N -0.093; A 0.227; K 0.229; V -0.155; S 0.203; E 0.079; T 0.044; H 0.044; Q 0.05; W 0.224; Y 0.121; L 0.161; M 0.226; P -0.03; G 0.127
E14: G 0.006; H -0.127; L -0.377; F -0.204; M -0.212; A -0.08; C -0.243; D -0.083; S -0.168; R -0.431; Q -0.113; W -0.24; I -0.167; P -0.856; N -0.459; K -0.439; V -0.41
H9: W -0.532; F -0.135; G -0.22; N -0.046; S -0.115; R -0.23; P -0.822; I -0.216; A 0.136; M -0.108; K -0.09; Q -0.248; E -0.418; Y -0.357; T -0.221
Q12: T -0.565; N -0.106; E -0.225; Y -0.279; I -0.068; G 0.208; S -0.412; M -0.27; C 0.039; H -0.27; L -0.298; K -0.449; A -0.171; D -0.051; F -0.458; P -1.17; W -0.69; R -0.303

Variants of: B2
Test: as above
Details: Homo sapiens

Abundance fitness of substitutions, site by site:
C58: N -1.05; V -1.04; I -1.39; A -0.869; W -1.26; S -1.1; H -0.287; R -0.929; M -1.09; G -0.851; Y -1.08; P -0.762; E -0.906; F -1.11; T -0.918; D -0.8
A56: G -0.057; Y -0.136; R -0.12; D -0.273; C -0.02; M -0.02; T -0.054; P -0.185; K -0.169; F -0.265; E -0.08; N -0.209; S -0.054; H -0.031; V -0.128; W -0.134
R57: I -0.103; F -0.234; K -0.029; G 0.051; V -0.074; M -0.134; C -0.075; S -0.026; L -0.122; P -0.013; Q -0.034; H -0.046; T 0.057; E -0.013; A -0.018
Y54: T 0.067; V -0.068; W -0.222
T59: M -0.237; L -0.249; V -0.227; R -0.002; E 0.098; H 0.035; C -0.25; G -0.13; F -0.254; S 0.045; I -0.103; D -0.072; P -0.142; N -0.205; W -0.387; Y -0.218; A 0.016
C55: M -1.11; D -0.507; T -1.16; P -0.891; N -0.615; Y -0.913; V -1.08; I -1.09; E -0.765; R -0.774; L -1.09; A -0.809; Q -1.01; S -0.897; W -1.11; F -1.05; G -0.913; H -0.938
